Reference: patent US20260146247A1

Biological target: CD4 (human) (UniProt P01730)
Experiment: cell-based or functional assay

## HIV-1 envelope glycoprotein (Env) (from UniProt P04578 33-856)
  transduction (mNeonGreen+) of CD4+ cells in a mixture of CD4+ and CD8+ primary human T cells treated with Env-Cas9-VLPs, highest treatment dose: 53.2%
